# Test results published in the RNAGym collection of RNA variant scans (doi:10.7554/elife.80360).
# B1: Twister Ribozyme (parent)
# chain: AACACUGCCAAUGCCGGUCCCAAGCCCGGAUAAAAGUGGAGGGGGCGG
# Variants of: B1
# Assay: self-cleavage, relative activity (ratio to wild type); higher = more cleavage; co-transcriptional
row,Variant,self-cleavage
1,A2C U12C,0.094
2,G17U G41A,0.103
3,G17U G41U,0.101
4,C15A C19U,0.566
5,A32G C46G,0.854
6,U12A G41U,0.772
7,A11G U31A,0.348
8,C5A A40U,0.107
9,C20U A30U,1.05
10,C8U G42U,0.133
11,U12C C20A,0.128
12,A1C C21U,0.125
13,C8U G41A,0.112
14,A34C G44C,0.156
15,U31G G45U,0.883
16,G13A G38C,0.78
17,A2C,0.0941
18,C8A G17A,0.12
19,C14A G43C,0.182
20,G17C G41C,0.104
21,G17C G41A,0.0738
22,A1G G48U,0.409
23,U6G C25G,0.0804
24,C5A C25A,0.068

row,Variant,self-cleavage
1,A2U C21A,0.0621
2,A22G G38A,0.106
3,G7C G29U,0.0704
4,U31C G36U,0.321
5,G36A C46G,0.7
6,A4G G47A,0.91
7,A4G A40U,0.163
8,U37A G38A,0.821
9,A2C A35C,0.064
10,G24U G39C,0.0634
11,C3G G13A,0.138
12,C9G A30G,0.791
13,G47A G48U,1.47
14,C8G C27U,0.14
15,A11G A23G,0.447
16,G16A C26U,0.107
17,A30U G42A,0.464
18,G13A G47A,0.457
19,C19A G36A,0.102
20,A1G C21G,0.0325
21,C8U A23C,0.0653
22,C15G C19U,0.0895
23,U6G G7A,0.501
24,U18C A30G,0.713

row,Variant,self-cleavage
1,C14U C15A,0.636
2,C3U A35C,0.493
3,U37C C46A,0.71
4,C5G G42C,0.226
5,U37A G41C,0.178
6,A10C C27U,0.932
7,C21G G48C,0.0934
8,G7C A11G,0.106
9,A30C G41U,0.156
10,U37C G45C,0.26
11,C8A A22C,0.45
12,A2C G17A,0.063
13,G24A G43U,0.0769
14,A2U G17A,0.131
15,U18G G24A,0.0714
16,A10C A33G,1.04
17,A1C A4U,0.116
18,G7A A32G,0.323
19,G7U G38A,0.0965
20,C5U A30G,0.784
21,U12A A35U,1.06
22,A2U C8U,0.109
23,C5A A22G,0.0856
24,U6G C27U,0.186

row,Variant,self-cleavage
1,U37C G47C,0.341
2,A4U U12G,0.168
3,U6A C20U,0.82
4,G13C G36C,0.122
5,A11U U12C,0.849
6,C9G U31G,0.781
7,G28U C46A,0.778
8,A23U C26G,0.101
9,A11U G13C,0.592
10,G36U G38U,0.167
11,C14G G44U,0.125
12,A23C C46U,0.486
13,G16A A35U,1.05
14,C14A G16C,0.0948
15,G13U G36U,0.107
16,C14A G42C,0.363
17,U18G A23U,0.0485
18,A11C C19A,0.136
19,A10C C19U,0.802
20,G13C A30G,0.502
21,C25U G48C,0.881
22,A1G C27A,0.189
23,A22U A35C,0.778
24,A11G G43A,0.234

row,Variant,self-cleavage
1,A11G C46U,0.943
2,U6A A22G,0.0598
3,A34G A35C,0.742
4,G42C C46U,0.463
5,A23U G39C,0.0667
6,C14U C26G,0.235
7,C26U G36U,0.133
8,G7A G38U,0.168
9,C5U C19A,0.145
10,C14G U18C,0.074
11,A10U A23U,0.632
12,G7A A34C,0.118
13,A4G C14U,0.957
14,C14G G39C,0.0468
15,A4U G38A,0.0789
16,G7A C46G,0.414
17,C8A G41U,0.146
18,A1G A4U,0.235
19,A33C G36U,0.122
20,C15A,0.801
21,A40G G44C,0.195
22,A23G G47A,0.265
23,C5G G41C,0.114
24,U37G G41C,0.113

row,Variant,self-cleavage
1,C9A A34C,0.18
2,A1U A35C,0.0998
3,A10C A11U,0.883
4,A40G G45C,0.148
5,C19U A40G,0.108
6,C9G G17A,0.103
7,G17A A34C,0.0806
8,A1G G29C,0.29
9,C21A U37G,0.0471
10,A2C C5U,0.0782
11,G16A G38C,0.761
12,C5U U12G,0.763
13,U6C U12A,0.663
14,C9U U37A,0.26
15,U18G G36A,0.0894
16,U18G G36C,0.0571
17,A33U G41C,0.18
18,A33U G41U,0.489
19,G16U G38C,1.02
20,A4C C46A,0.063
21,A4C C46G,0.142
22,G24U G29C,0.0648
23,C20G G41A,0.0636
24,C15G C26G,0.0537

row,Variant,self-cleavage
1,C21A A35C,0.083
2,G13A G24A,0.0967
3,A30C G44C,0.874
4,A4C C5A,0.0937
5,C14A C19G,0.359
6,C20U G41A,0.124
7,G7U C14A,0.133
8,G7U C14G,0.0477
9,G29C G45U,0.362
10,A1G C14A,0.467
11,U37A G44C,0.821
12,C25A G44U,0.107
13,C25G C46U,0.286
14,G7C U18G,0.0952
15,A35U,0.969
16,U31G A33U,0.876
17,C20A G39U,0.0846
18,C15G G16C,0.305
19,C14G A30C,0.16
20,C9U G13A,1.03
21,C26G G41U,0.0825
22,C9A U12G,0.417
23,A32G A40G,0.147
